This is an account of results in the supplement of paper PMC10126150.

± gives the standard deviation of the averaged measurements.
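Further: ATP exposure 15 min at 22 °C before imaging.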

The subject of this data set is ATP. Put plainly: switch fluorescence ratio, 500 uM ATP over buffer (Cy3 cluster intensity, sum of 5 cycles each) (fold (ratio)); higher = stronger signal-on switching upon ATP binding; sequences stand for … in TCGTCGGCAGCGTCAGATGTGTATAAGAGACAGTTTTTTTTTTTTTTTTTTTTTTTTT…TC. The note with it: aptamer strand: ATP DNA aptamer (quencher-CACCTGGGGGAGTATTGCGGAGGAAGG + anchor), 100 nM annealed; ATP concentration: 500 uM. In a few lines:
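Imaging in selection buffer was followed by imaging after 15 min with 500 uM ATP at 22 °C, for Cy3-labelled switching-strand clusters annealed to 100 nM quencher-labelled ATP aptamer on a modified Illumina MiSeq flow-cell. Five of these buffer/ATP cycles ran, separated by NaOH stripping and re-annealing. The fluorescence ratio per cluster is summed target-cycle over summed buffer-cycle Cy3 intensity, averaged per switch-domain sequence; clusters outside 100-1000 RFU were removed.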
In the case of GGCTTTCATT, the switch fluorescence ratio is 0.983 ± 0.013.

With CGGGTGGGGG, the switch fluorescence ratio was 1.07 ± 0.036.

As for TTCAGCTTTT, the switch fluorescence ratio worked out at 0.984 ± 0.037. The value for ACGAAGATTT was 1.03 ± 0.066.

CGGGTGGGAA: the switch fluorescence ratio was 0.9995 ± 0.0026. Regarding GAGGCGAGTC, the switch fluorescence ratio amounted to 1.06 ± 0.029. For the sequence GCAGCATCGG, the switch fluorescence ratio is 1.12 ± 0.021. The value for TCGGGTTTTA was 1.03 ± 0.039; that for GGGGGAGCTT was 0.9828 ± 0.0078; that for GGTACGTTTG was 0.993 ± 0.033.

For ATTTTTAGAA, the switch fluorescence ratio amounted to 1.03 ± 0.013. In the case of AACATGTCCT it was 1.04 ± 0.031. On to CCTTTCATGC, for which the switch fluorescence ratio turned out to be 1.65 ± 0.16. The value for TTATCACTGG was 1 ± 0.07. In the case of TGGCGCTGGG it was 0.978 ± 0.022; in that of TTTACGAAAT, 1.08 ± 0.12; in that of TTGATAAGTT, 0.9751 ± 0.0069. With ATGGATCCGG, the switch fluorescence ratio worked out at 1.03 ± 0.083. Consider GACCGTTGGA, for which the switch fluorescence ratio amounted to 0.987 ± 0.037. On to GCTTCAATGT, for which the switch fluorescence ratio was 1.03 ± 0.067. As to AAGCCCCTTG, the switch fluorescence ratio came to 0.992 ± 0.034. The value for TGTACGGAGG was 1.04 ± 0.057; that for GGTTGACTTG was 1.01 ± 0.059. The value for CGGTATTTAC was 1.04 ± 0.021; that for TTAGTACTGC was 1.03 ± 0.02; that for GTACACTCAT was 1.04 ± 0.031.

GCAGTAAAGC: the switch fluorescence ratio turned out to be 1.03 ± 0.032.

As to TTGGATGAAA, the switch fluorescence ratio stood at 1.03 ± 0.076. Take CGTAGTGAAG: the switch fluorescence ratio amounted to 1.03 ± 0.037. Consider TAAGGTGGTA, for which the switch fluorescence ratio stood at 1.02 ± 0.014. For GGAGGGCAAA, the switch fluorescence ratio came to 1.01 ± 0.025. Take AAGCCTTGGG: the switch fluorescence ratio amounted to 1.02 ± 0.022. Regarding TTCCCATGGG, the switch fluorescence ratio amounted to 1.02 ± 0.027. On to TAGAGTCTTT, for which the switch fluorescence ratio was 0.994 ± 0.013. The value for CTGTGACCGT was 1.02 ± 0.025; that for TAGTAGACTC was 1.46 ± 0.75; that for ACAAGATACA was 1.03 ± 0.021. As for TAGGGGTCCA, the switch fluorescence ratio is 0.987 ± 0.018. Consider CATTGGTCAT, for which the switch fluorescence ratio was found to be 0.995 ± 0.045. As for TCTAGCAGTT, the switch fluorescence ratio is 1.048 ± 0.0014. With CGTTCGCTTA, the switch fluorescence ratio is 1.96 ± 0.037. TTCGTTTTTT: the switch fluorescence ratio was 0.985 ± 0.047. Take TTGACGTTGC: the switch fluorescence ratio worked out at 1.01 ± 0.033. The value for ACGGTCAGGG was 1.046 ± 0.0074.

TTTTGTCGGT: the switch fluorescence ratio was 0.9667 ± 0.0042. Take TTTATGATGG: the switch fluorescence ratio was found to be 1.01 ± 0.052. The value for TTAGACGGCC was 1.03 ± 0.014; that for TTTGCAACGA was 1.25 ± 0.31; that for TTTCGCGGTT was 1.02 ± 0.043. Turning to TTTATGGACT, the switch fluorescence ratio is 1.03 ± 0.039.

Consider CTGTGGCTGG, for which the switch fluorescence ratio stood at 0.9795 ± 0.0073.

In the case of TTTTTGACTG, the switch fluorescence ratio was 0.994 ± 0.075. Regarding ACAGGAAAAA, the switch fluorescence ratio was determined as 0.976 ± 0.084.

For the sequence TAAAATAGGG, the switch fluorescence ratio is 1.01 ± 0.018. Consider GTTCGAACGG, for which the switch fluorescence ratio is 0.9963 ± 0.006. For the sequence TGAGAAGTCA, the switch fluorescence ratio was determined as 0.9785 ± 0.0066. As for TGTCCGGTGG, the switch fluorescence ratio was found to be 1.01 ± 0.066. In the case of TCCCATATAT, the switch fluorescence ratio stood at 1.09 ± 0.014. On to TTTTAAAGTA, for which the switch fluorescence ratio is 1.01 ± 0.031.

TTATTTGCCT: the switch fluorescence ratio came to 1.17 ± 0.18. Consider GATTTGCGGG, for which the switch fluorescence ratio worked out at 0.9833 ± 0.0069. TGTTGAGGAA: the switch fluorescence ratio was found to be 1.05 ± 0.053.

For CTTCTACCTG, the switch fluorescence ratio is 1.01 ± 0.035. On to GTGAGATGGG, for which the switch fluorescence ratio was 0.984 ± 0.03. In the case of CGGGGTTATT it was 0.989 ± 0.014; in that of GGTGAGAAAT, 1.01 ± 0.04.

Take TCTTGAGGGG: the switch fluorescence ratio is 0.982 ± 0.034.

In the case of ATCAATTGGT, the switch fluorescence ratio is 1.013 ± 0.0052. As to CGATGTCACG, the switch fluorescence ratio worked out at 1 ± 0.033. With CTCGTACTTA, the switch fluorescence ratio was found to be 1 ± 0.019. Turning to TTTTAGTAGC, the switch fluorescence ratio was determined as 1.04 ± 0.0058. TCCTTTTTTG: the switch fluorescence ratio amounted to 1 ± 0.016. Take GTGCTTGTGT: the switch fluorescence ratio is 1.01 ± 0.04. For the sequence AAGTTGGTCT, the switch fluorescence ratio came out at 1.02 ± 0.018. Take TTTCTCGTAC: the switch fluorescence ratio is 1.11 ± 0.012. Take TGGGGGGCAT: the switch fluorescence ratio was 1.07 ± 0.19. For TAAAACGCTC, the switch fluorescence ratio was found to be 1.07 ± 0.073. GAGGCCATTT: the switch fluorescence ratio is 1.01 ± 0.046. As for TTAGGTGAGG, the switch fluorescence ratio stood at 0.993 ± 0.026. Consider TTGTACCATA, for which the switch fluorescence ratio stood at 1.1 ± 0.071. Take GATTCACGGT: the switch fluorescence ratio was 1.01 ± 0.02. Regarding CCTACTTGGC, the switch fluorescence ratio was found to be 1.16 ± 0.05. In the case of TACATTTGGG, the switch fluorescence ratio was found to be 0.992 ± 0.021. In the case of CGGATACGCC it was 1.09 ± 0.028. Regarding TAGGTCCAAT, the switch fluorescence ratio stood at 1.01 ± 0.015. In the case of GTCTCAAAGA, the switch fluorescence ratio was 1.017 ± 0.0083. Regarding TTCGTTTGCT, the switch fluorescence ratio came out at 0.955 ± 0.035. Take ATATTTTAGG: the switch fluorescence ratio was found to be 0.996 ± 0.031. On to TAGGTTGTGG, for which the switch fluorescence ratio amounted to 0.994 ± 0.016. Regarding AAGGGGAACT, the switch fluorescence ratio came to 0.9907 ± 0.0043. Regarding TCCGTGCGGT, the switch fluorescence ratio amounted to 1.04 ± 0.066. Consider CCACCTATCT, for which the switch fluorescence ratio came out at 1.09 ± 0.052. In the case of GAAAAGGGTT, the switch fluorescence ratio amounted to 0.978 ± 0.032. In the case of GAGAGATAGT it was 1.03 ± 0.015; in that of CGGGTATTGG, 0.97968 ± 0.00074; in that of TTAGGCCCTT, 1.02 ± 0.011.

With TGAGAAGGGA, the switch fluorescence ratio turned out to be 1.02 ± 0.22. In the case of GTTTTGTGGT it was 0.954 ± 0.021; in that of GTTGTTGGGT, 0.983 ± 0.034; in that of TTCATATTGT, 0.955 ± 0.024. As to TTACGTGTTA, the switch fluorescence ratio amounted to 0.995 ± 0.041. As for ATGGAGGTAG, the switch fluorescence ratio was determined as 0.995 ± 0.027. For the sequence CATCGGGTAG, the switch fluorescence ratio was found to be 0.996 ± 0.02.

With GTTGTTAATT, the switch fluorescence ratio worked out at 1.01 ± 0.029. In the case of ACGGGCTTAG, the switch fluorescence ratio was 1.01 ± 0.016. In the case of GTGATAGATT it was 1 ± 0.013; in that of GGGGGTCTGA, 1 ± 0.024.

As to ACGACCGGCA, the switch fluorescence ratio was 1.11 ± 0.098. ATGGTATGGT: the switch fluorescence ratio amounted to 0.9855 ± 0.0081. Regarding GTTTCGTGAG, the switch fluorescence ratio came to 0.994 ± 0.054.

Regarding TGGGGGGAGC, the switch fluorescence ratio is 1 ± 0.022. In the case of CTCAACGATT it was 1.03 ± 0.048; in that of CGTTCGGCTG, 1.04 ± 0.039. Take TCAATAGAGT: the switch fluorescence ratio stood at 1.039 ± 0.0024. On to ACTGCTTCCT, for which the switch fluorescence ratio came out at 1.34 ± 0.051. AATGGCTGTG: the switch fluorescence ratio amounted to 0.972 ± 0.033. For AACTATTCGG, the switch fluorescence ratio was 0.9788 ± 0.0054. In the case of TACTAAGGGG it was 1.04 ± 0.041; in that of TTGTTTCTCT, 0.959 ± 0.016.

As to ATCGTATACC, the switch fluorescence ratio worked out at 1.01 ± 0.022.
